Measured values reported in the DeepSol protein solubility set.

Experiment: soluble on expression in E. coli; label from the status in PepcDB or PDB records

Soluble on expression in E. coli, not soluble:
MRLKLTHINHISHKIANDFIHSKLLELKAPRELLCELIEGILEKSVKKENAIDEQARELLEENTDEIEFMRMDERQLFWMIKRQIAQKEGFHLFWEERCNDLSHQILNKILDEDLIMFSVSENLIRNLIYKSIDTYSKAYESIENEVHEKIKHYKRKLPVGSDEYELVFERLYEEELRRKGFL
MGSDKIHHHHHHMMLQIPDVLSKAQVAQCRQMMDVADWTDGNATSGHQSALAKRNMQLPEGSPVARQIGDLIQDALGANATFFSAALPLKVFPPLFNRYEGGQAFDNHVDNAIRYLRGTGFRVRSDLSATLFLTEPQDYDGGELVIEDTYGQHRVKLPAGYMVLYPATSLHHVTPVTRGARVSSFFWIQSMVRDEGQRALLFELDTRIQQVAEEMGQKDSGVVGLTGVYHNLLRRWADA
FNKDGKFKIVQFTDVHFKYGNPASDVALERIGEVLDAEHPDLVIFTGDVVYSSPADKGMLQVLGQVERRHLPFVVTFGNHDNEQGKTRAELYDLIRGVAGNLLPDRGASPSPDYILTMKSSADASKDAALLYCMDSHSYSSLKDVDGYAWLTFGQVSWYRAQSAAYTARNGGKPYPALAFFHIPLPEYNEAAANENAILRGTRMEKACAPQLNTGMFAAMKEAGDVMGVFVGHDHDNDYAVMWKNILLAYGRFTGGNTEYNHLPNGARVIVLNEGTRTFETWIRQKGGVVDSTSYPSDYVKDDWRKR
MSLYGRHTISIILREIFRLMDYPSIDTLLESAHIVTLPMKYPFMGLSERQAVLFEGPNSWAEYSPFMGCNDTRMWLASAIEYGWGNTNVLSVPNLDLDNTNFASRSKYGYIANPQTSNKDHSDNKRFYTQTKNHREIPVNAILPDIPASKMSEILGKDLQGCKCVKIKVGKHFQDRDIHRIRAVLDFMGADTMLRLDANCKWNVSETLNNLDVLEDNDLLENVSYIEQPCRTTRELITLKQKMDTRGYVTKIAIDESLRDLLLHWQKNRKWSNNSGITYTTELRETLSACDMLVLKLQPMGGMRAVADLLESIKNNIKVNVGYTVSSSLETSLGIEMGLALALNLPNITLPVGLATAGLLDADITDDPLLPNKGYITPRKIEVNKKLLNRYAADKRHVVWWHRRIRAAHRALFQDLSDEGHHHHHH
MATANEHLVAWLRDAHAMEEQAITMLTSQSSRLENYPELKTRIDRHLQETKDQAAMLERCLERLDGGTSSIKDISGKIVAFGQGLSGLFVSDEVVKGTLASYTFEHMEIASYRILIAAAEQAGDQETKRVCESILQQEIAMAEWLAQNAGEITRKFLERDQRDVTAKH
MGSDKIHHHHHHMSTEHLLLVSLLKKLKDDALVLPTLPEVAMRVQEVVGRSDASLKQVAEVIGQDAAISARIIKVANSALYSRGVPAESINSAVSRIGLIQIKSIATSVAMEQLFISTNEMVWEVMDEVWRTSIDVTAAACAMLQMYNKRHSTSRLNFDTLTLAGLVHNIGALPVLTEAEAQPHLFTSIDQLRALVRKMQGPLGRAVLKSWDFSTEVMEVVERWADLPYLPDHVTYLDFIRAAAFYTGELRAGTELEQRLGVFVARGLPVTTDDLASDEFMEKFHSIRESYQ
MDNQISVPPALTGNYAFFFDLDGTLADIQPHPDQVVIPDSTLQALNALAQQQGGAVALISGRSMAELDALTHPWRLPLAGVHGAERRDINGKTYIVSLPTALRDEIAAELTSALEALPGCELESKEMAFALHYRQAPQQQSAVLELAQRIVQRYPLLALQLGKCVVEIKPRGVNKGEAITAFMQEAPFAGREPVFVGDDLTDEAGFSVVNQLQGMSVKVGAGETQAHWRLADAAAVRTWLQHLAYDAQTERRDDHESFSRSL
MGSDKIHHHHHHMPKMGELTLTSVDEFDFRLLIKALGKGEKGSRALTFDEACLLLEGFAKGKATRAQMASAMMLMRVRGETTEEISGMVAGLRRTVDKDWHSLEVDIDWPVYAGKREQLPWLLLVAKLLAKQGVRVMLHGDSQALPHRRHVESCLASLNIACCTTPQMAKAALHSDNIVYVCAGDLAPVLDECRQLHQELGLRSLIQTAARCMNPTNAPISLRSYFHPGLDTVHQGICEILFEKSEYHAGSVAIFKGLQGETECNPRVATTITVVNGQTDNIAVSSLSIPTLLEGFSGAKVGQAELSSDILALLWREQEPFSADALTTLMSRTMIEQALSSMTATLAAVLLLLSRKSAMTEPNTTAIITTEQAVNLSQQCWTNRFNSTDCPLKQWRNRELLCAV
MIRFEQVSKAYLGGRQALQGVDFHLRPAEMAFLTGHSGAGKSTLLKLICGIERPSAGHIWFGGHDISRLKNREVPFLRRQIGMIFQDHHLLLDRTVYDNVAMPLIIAGASSEDIRRRVSAALDKVGLLDKAKNFPIQLSGGEQQRVGIARAVVNKPAVLLADEPTGNLDDALSEGILRLFEEFNRVGVTVLMATHDTSLIARRRYPILTLSQGRMSGAHHGE
MGSDKIHHHHHHMKKVIPALALVLLTTGLVGCDRVEPGNVGIKVNKLGDDKGVGEVVGVGRYWTGWNTEVYIFPTFKQMKTYDEPFSFQMSDGTTIGYHIGVAYKVDPSKVTTVFQTYRKGVDDITDTDLRQKIADALNRLASKMTTDKFIDGGKSELLDAALKDIQEEMTPIGIQVMSLSYVGKPEYPPTVIDSINAKVTANQKTLQCEQEVKQREAEANMLRAEAAGQADAIRTKAQAEADAIRLRGEALRQNPNVMELEAINKWNGTLPQYMTSGANTPFIQVK
MKIALSFLFLTSTFSNAGKIGRLQSVAVSGQLNCLGKPAVGVRIDLMESDNNGEETGIIDDNDFMGYTYTDSAGFFNMSGSEVEISGIEPYVNIFHKCNDGLSPCQRQLRVDIPKSATASGPAPNETFSIGTLELSSRKVIGERRSCAYRNLTQTS
MKTTTATNSILFKLYFAPGATEQISIEYYNLQQLIEKLELKLGELGLNFNVVFWKNDKGNLISMSQNAQRVLKKMANRDSASIFVIADSDSSDSSSDSSDSGDEDVIIADAPEVAPHRRHCGRRDRSRSRGFDRSRSRSRSRSNFHDHHKRHQMKKLMWKRFQESHGHPEFKRRHCFGGRRARSASPIGRRPCREGEEFKRHPLGSFGTPCGREEFEGPTGGFGRPFGRRGMDHHGFNFHRHHHPFGAFHGFGGHHHGFGHGFGHHGFKRQHPFERRFGRC
PMDDIVRIHASSGTTGKPTVVGYTRKDIEIWSELMARSFAAAGVHKGDIIHNAYGYGLFTGGLGAHYGAERLGASVIPMSGGNTKKQIMIMKDFGSTVLTCTPSYSLFMAEAAREEGVDFRQLKLHVGIFGAEPWSESMRAEIEQKLNLCAIDIYGLSEIMGPGVAIECREAKKGLHI
MGSDKIHHHHHHMLLPLSSQNVIQHLQAADLCSSEDGKSDIVELPISKKNYNLVVNLADNRKLLVKQERGVENDGILHELFNEWLFHQLLQKFPILGNISAIAPLVVHFDEENSILVRSYLSEYLDLAEFYQNPNVFPKEIAAAIGTTLAALHRTTFQGKEYRDFMATAPQGQFRYHFYNPAQGISSLNPEIFGRIPTEALKFHVLYQCYESLEAAIADLAYEWDACCLTHNDLKLNNILIHSRWNQLDNCLVQLIDWEACTWGDPAFDLGTILASYLEIWLESLVVDPTLELAESLELVMIPLEEIQPSLVALLQAYLQAFPMILEYHPNFLVRVIKFIGLALIHQIQDKINNCKLFDNSHLYMLQVAKNLLTMPEQSILSIFGISEAEILSPVAKVPQVSHPEKEKQLVPLYYEKTRLRGC
MGSDKIHHHHHHMTSFISVYLKIKYYICIYKGNLLVKSILLESSCVILIKYSAQYPNLSNSMIKMNKTISDVDFDDEQEIKLPLSNRQSIAILLGAGFSAPKGYPIGNDINKKIQNFDDSNIDFSPSGMLAISKDGHKPLFQIEGVRNIHQKYFIFCKRLINEYTKAHSNQFDYEQFYDFIKSDEAKDNRYRLLCQDLINKSDDYDNYLFNVVHIYNQMVLYLLKDKEGKSYYDGEPFKVNCADAYNEFLLYLSQQSKECIINIHTLNHDLLIESFNQTSNINGNISDGFDEYGSEYYGILEHDHRNYNCRLERYTGRYNTPIRLYKLHGSIDYVPFYRRDKNGFMKPEKYVKIKWGIGASNIIKGRKSKYGYDASPFEYHADFLTGTTSKIKRYDETLLFKKLFKKFRNNLSKANSLIIIGYGCKDKGINEMIKDNFDYKNKPSFIIDKYAGASVETFAQKINAKIIKESIERLDKTWFV

Soluble on expression in E. coli, soluble:
MLQHYSVSWKKGLAALCLLAVAGLSGCDQQENAAAKVEYDGLSNSQPLRVDANNHTVTMLVQINGRFLTDDTRHGIVFKDGSNGHKSLFMGYATPKAFYEALKEAGGTPGENMTMDNKETTHVTGSKLDISVNWQGAAKAYSFDEVIVDSNGKKLDMRFGGNLTAAEEKKTGCLVCLDSCPVGIVSNATYTYGAVEKRGEVKFKGNASVLPADNTLATVTFKIAE
SESWRSFFKEALQGVGDMGRAYWDIMISNHQNSNRYLYARGNYDAAQRGPGGVWAAKLISRSRVYLQGLIDYYLFGNSSTVLEDSKSNEKAEEWGRSGKDPDRFRPDGLPKKY
MASLLDKAKDFVADKLTAIPKPEGSVTDVDLKDVNRDSVEYLAKVSVTNPYSHSIPICEISFTFHSAGREIGKGKIPDPGSLKAKDMTALDIPVVVSYSILFNLARDVGVDWDIDYELQIGLTIDLPVVGEFTIPISSKGEIKLPTFKDFF
MNTLTTTSVVLPAPRPAINQGIDINNEMVLNHTAIYENCLAQVTQENTVENALMLLDPYGTAPLSAYAGVWSLEPAEIIVTVQDAAKTAMPVEHLYTLTAGANLLPVLGLVADTENRIVFSQADTPLAVYTLITQPLPPVDSAEVVLGFPIINVTQPATDANKMAPGFYFITHFDRYNYALDQNGLVRWYVTQDYPSYNFVRIDNGHFLTTSEAKNTYLDMYEFDMMGRLHTFYNLDNQFHHSIWPWDSNTIVAPSEYTSGRPDDLKTNEDGVSVVDLTTGLETAYYDMAKVLDTTRVSRPSGTAPGEDPTVKDWLHINQSYVNETNQLLIASGRHQSAVFGVDLQTQALRFILSTHEDWDDAYQPYLLTPVDSEGVALYDFSKQEDIDAADRDFWTWGQHNVVEIANNTPGIVEFMVFDNGNYRSRDDSKSLLPPDNYSRIVHFVVNMNEMTVMRPFEYGKELGARGYSSCVSAKAIQQNGNIVVHFADCTFDENGRAISCQPGESDIIDPQAGSEAMGLLILQEIAPTEKTVLFEATMTSGYYKNAETNGEGYRYDITSFRVYKMDLYALEHHHHHH
KILDACCGSRMFWFDKQNDQVLFMDNRKHYEKLESGHIVAVNPNIVADFRKMPFDDNSFYHVVFDPPHLLRAGSNSWLAKKYGKLNEQTWKEDIQKGFSECMRVLKPNGTLVFKWNEDQIKLSEILSIIDYEPLYGNKRAKTHWLVFMKESEENESNG
GMNLQTDQTTTTADESAIRAFHRQMIDAWNRGSGEGFAAPFSETADFITFEGTHLKGRKEIAAFHQQAFDTVVKGTRLEGEVDFVRFVNSQLALMLVVIRVILPGQTETSASRDSLPLYVVTKGDEGWQIEGLLNTRKLTLERQFFLDDFDSLSAEAQRQVTDLVASLKQSH
MKLPPSLICPPLLALYRVWCRTLNFEEEGRAAVDVLWQERKPMVFALWHDELFPLMHVRRELEIVTVVSQSRDGEYLARVLQGLGLHTARGSSSRGGVKALLQAARMMQKQNLCGCVTVDGPRGPRHRVKEGAIFLAHRAKAPIVPIRLFMSRTKVFAKAWDKFQLPLPGSDVRVVFGAPYHTAENALESPRLEDERQRLEAKLEALALEHHHHHH
